The values that follow come from PMC5942852 (2018).

Changes are numbered by the printed parent chain. Where “and” joins values, the source holds several entries; their conditions need not be identical. Equal values may be shown once.

For test [1], the target named is T1, Bee Hyaluronidase (bee).
T1 chain: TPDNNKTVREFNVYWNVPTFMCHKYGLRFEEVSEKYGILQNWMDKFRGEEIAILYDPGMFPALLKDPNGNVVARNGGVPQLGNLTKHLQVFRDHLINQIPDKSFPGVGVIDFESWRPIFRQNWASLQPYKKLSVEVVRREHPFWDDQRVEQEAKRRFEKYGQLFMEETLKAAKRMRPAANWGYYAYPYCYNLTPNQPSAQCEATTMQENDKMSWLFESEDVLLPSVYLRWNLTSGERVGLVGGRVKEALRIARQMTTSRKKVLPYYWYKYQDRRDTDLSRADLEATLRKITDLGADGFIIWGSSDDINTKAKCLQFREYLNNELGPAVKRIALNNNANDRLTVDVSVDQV
Description: SPR; XPR repeat 1.

The target of test [2] is T1, Bee Hyaluronidase. Description: SPR; XPR repeat 2.
Test [3] deals with T1, Bee Hyaluronidase. Nature of the test: SPR; XPR repeat 2.
Test [4] addresses T1, Bee Hyaluronidase. Description: SPR.
Test [5] has as its target T1, Bee Hyaluronidase. Description: SPR.

B1: L14_7 (antibody, V domains shown)
VH: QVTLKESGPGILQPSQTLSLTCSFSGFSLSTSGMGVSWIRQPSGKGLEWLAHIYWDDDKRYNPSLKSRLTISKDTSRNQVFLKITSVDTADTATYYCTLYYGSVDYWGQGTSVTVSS
VL: DIQMTQSPASLSASVGETVTITCRSSRDIKDYITWYQQKQGKSPQLLVYNAKTLAEGVPSRFSGSGSGTEFSLKISSLQPEDFGNYYCQHHYGTRTFGGGTRLEIK
With B1, the koff in the test with Bee Hyaluronidase [1] was determined as 0.000115 s⁻¹; in the test with Bee Hyaluronidase [2], 0.000133 s⁻¹. Also, the dissociation constant Kd with Bee Hyaluronidase [3] turned out to be 0.962 nM.

B2: WT 2J88 antibody (antibody, V domains shown)
VH: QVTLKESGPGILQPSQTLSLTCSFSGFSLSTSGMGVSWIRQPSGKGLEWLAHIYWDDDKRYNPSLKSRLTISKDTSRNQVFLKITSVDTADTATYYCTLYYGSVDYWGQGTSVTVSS
VL: B1 VL with S25A, R27E, D28N, K30Y, D31S, I33L, E70Q
Take B2: in the test with Bee Hyaluronidase [4], the koff was 0.00111 s⁻¹ and 0.0013 s⁻¹ and 0.00116 s⁻¹. Moreover, the equilibrium dissociation constant (Kd) in the test with Bee Hyaluronidase [5] was 10.4 nM and 15.6 nM.
